Measurements as given in the supplement of paper PMC10724198.
± gives the standard deviation of the averaged measurements.

What was measured:
[1] = test system: Saccharomyces cerevisiae; assay: protein stability index of tFT-peptide fusion (C-terminal peptide) (PSI (0-1 scale)); higher = more stable (slower turnover)
Procedure: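 MPS profiling in S. cerevisiae of the tFT-X12 degron library: putative degron peptides plus stable controls, 12 aa, fused to the C-terminus of a sfGFP-mCherry timer. Cells are FACS-sorted into 8 mCherry/sfGFP bins and deep-sequenced. PSI runs from 0 (unstable) to 1 (stable). Backgrounds are wild type, das1Δ and doa10Δ at 30 °C, and wild type, das1Δ, cdc34-1 and cdc53-1 at 37 °C; 2-3 technical replicates each.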

[2] = test system: Saccharomyces cerevisiae; assay: as above; conditions: genetic background: wild type; temperature: 30 C
[3] = genetic background: cdc34-1, temperature: 37 C
[4] = genetic background: cdc53-1, temperature: 37 C
[5] = genetic background: das1 deletion, temperature: 30 C
[6] = genetic background: das1 deletion, temperature: 37 C
[7] = genetic background: doa10 deletion, temperature: 30 C
[8] = genetic background: wild type, temperature: 30 C
[9] = genetic background: wild type, temperature: 37 C
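Further: PSI is a weighted mean of sequencing reads over stability bins, variants kept only with over 10 reads, mCherry proximal and sfGFP distal, peptide attached via GGGS linker.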

Sequence | protein stability index [1, 3] | protein stability index [1, 4] | protein stability index [1, 5] | protein stability index [1, 6] | protein stability index [1, 7] | protein stability index [1, 8] | protein stability index [1, 9] | protein stability index [2]
LLVKFTFLIIFT | 0.146 ± 0.0079 | 0.257 ± 0.089 | 0.191 ± 0.011 | 0.31 ± 0.019 | 0.27 ± 0.02 | 0.2 ± 0.015 | 0.2767 ± 0.0024 | 0.266 ± 0.025
LLVLPFFSLSRF | 0.896 ± 0.028 | 0.90351 ± 0.00018 | 0.774 ± 0.0081 | 0.8734 ± 0.0026 | 0.748 ± 0.024 | 0.763 ± 0.017 | 0.852 ± 0.019 | 0.816 ± 0.01
LLVVFSCFTFMF | 0.259 ± 0.0096 | 0.399 ± 0.042 | 0.277 ± 0.032 | 0.476 ± 0.0058 | 0.254 ± 0.027 | 0.279 ± 0.028 | 0.449 ± 0.022 | 0.38 ± 0.037
LMLGARVSRRIH | 0.64 ± 0.082 | 0.687 ± 0.015 | 0.673 ± 0.026 | 0.707 ± 0.026 | 0.227 ± 0.02 | 0.263 ± 0.049 | 0.5065 ± 0.0015 | 0.402 ± 0.0098
LNALSHCRAICS | 0.632 ± 0.027 | 0.687 ± 0.0091 | 0.604 ± 0.023 | 0.692 ± 0.015 | 0.238 ± 0.0073 | 0.268 ± 0.028 | 0.462 ± 0.0055 | 0.379 ± 0.039
LPASLSLWPLLC | 0.4736 ± 0.0023 | 0.604 ± 0.025 | 0.537 ± 0.019 | 0.668 ± 0.012 | 0.0836 ± 0.017 | 0.0983 ± 0.017 | 0.127 ± 0.015 | 0.1137 ± 0.0011
LPPHLPFPLSAA | 0.657 ± 0.0098 | 0.7225 ± 0.0025 | 0.638 ± 0.0075 | 0.724 ± 0.019 | 0.43 ± 0.0083 | 0.462 ± 0.019 | 0.621 ± 0.0089 | 0.383 ± 0.011
LPSPLLFLPALF | 0.708 ± 0.017 | 0.7877 ± 0.0075 | 0.667 ± 0.025 | 0.778 ± 0.055 | 0.405 ± 0.011 | 0.436 ± 0.011 | 0.614 ± 0.017 | 0.466 ± 0.014
LQSVAFERGGPD | 0.687 ± 0.017 | 0.736 ± 0.0092 | 0.649 ± 0.0084 | 0.729 ± 0.015 | 0.647 ± 0.026 | 0.661 ± 0.0084 | 0.7194 ± 0.0071 | 0.727 ± 0.018
LRSVVFFCRTLL | 0.677 ± 0.045 | 0.7436 ± 0.0044 | 0.623 ± 0.014 | 0.731 ± 0.013 | 0.3373 ± 0.0013 | 0.362 ± 0.015 | 0.566 ± 0.017 | 0.5 ± 0.0099
LSFFDYVLLQIA | 0.556 ± 0.03 | 0.58 ± 0.029 | 0.462 ± 0.032 | 0.635 ± 0.0073 | 0.166 ± 0.013 | 0.199 ± 0.028 | 0.317 ± 0.027 | 0.285 ± 0.01
LSLGVGSDAEGG | 0.687 ± 0.06 | 0.736 ± 0.015 | 0.64 ± 0.02 | 0.743 ± 0.031 | 0.646 ± 0.021 | 0.645 ± 0.007 | 0.712 ± 0.0096 | 0.549 ± 0.17
LSYRFVFRFLLF | 0.543 ± 0.067 | 0.592 ± 0.0035 | 0.525 ± 0.013 | 0.573 ± 0.014 | 0.39 ± 0.017 | 0.372 ± 0.027 | 0.472 ± 0.0083 | 0.421 ± 0.0094
LVCLFFLSSLFF | 0.547 ± 0.05 | 0.606 ± 0.0081 | 0.495 ± 0.046 | 0.602 ± 0.022 | 0.46 ± 0.016 | 0.464 ± 0.02 | 0.58 ± 0.017 | 0.4609 ± 0.0043
LVCLVASCVRWL | 0.453 ± 0.022 | 0.533 ± 0.0085 | 0.359 ± 0.037 | 0.5664 ± 0.0041 | 0.237 ± 0.0034 | 0.272 ± 0.027 | 0.4608 ± 0.0029 | 0.357 ± 0.019
LVGVLLAVWSVV | 0.2387 ± 0.00038 | 0.294 ± 0.039 | 0.249 ± 0.039 | 0.412 ± 0.0087 | 0.168 ± 0.0025 | 0.197 ± 0.019 | 0.338 ± 0.045 | 0.308 ± 0.017
LVLGLYGVWLVV | 0.262 ± 0.005 | 0.179 ± 0.022 | 0.254 ± 0.026 | 0.4104 ± 0.0027 | 0.355 ± 0.015 | 0.243 ± 0.024 | 0.3561 ± 0.0035 | 0.345 ± 0.015
LVMYRSALIRGH | 0.526 ± 0.039 | 0.529 ± 0.042 | 0.445 ± 0.0092 | 0.5693 ± 0.0033 | 0.3624 ± 0.00052 | 0.396 ± 0.03 | 0.525 ± 0.01 | 0.462 ± 0.05
LVSWAWIWIFVF | 0.251 ± 0.057 | 0.354 ± 0.022 | 0.253 ± 0.039 | 0.417 ± 0.0085 | 0.171 ± 0.0065 | 0.194 ± 0.022 | 0.32239 ± 2.4e-05 | 0.226 ± 0.054
LVSYHKMAISSF | 0.595 ± 0.017 | 0.58 ± 0.019 | 0.436 ± 0.022 | 0.626 ± 0.047 | 0.421 ± 0.0095 | 0.44 ± 0.022 | 0.571 ± 0.0095 | 0.47 ± 0.051

Sequence | protein stability index [1, 3] | protein stability index [1, 4] | protein stability index [1, 5] | protein stability index [1, 6] | protein stability index [1, 7] | protein stability index [1, 8] | protein stability index [1, 9] | protein stability index [2]
LWWTRVILYGYI | 0.51 ± 0.0061 | 0.571 ± 0.021 | 0.456 ± 0.027 | 0.5496 ± 0.0039 | 0.34 ± 0.0087 | 0.353 ± 0.016 | 0.445 ± 0.013 | 0.387 ± 0.036
LYCGLIFFLRGV | 0.6263 ± 0.0019 | 0.6389 ± 0.0017 | 0.516 ± 0.018 | 0.6475 ± 0.0026 | 0.468 ± 0.032 | 0.472 ± 0.029 | 0.612 ± 0.0081 | 0.516 ± 0.084
LYFLLGSLVFVF | 0.366 ± 0.0083 | 0.417 ± 0.015 | 0.273 ± 0.035 | 0.506 ± 0.014 | 0.244 ± 0.0021 | 0.275 ± 0.019 | 0.461 ± 0.031 | 0.392 ± 0.0081
MALAVRVVTCGA | 0.185 ± 0.014 | 0.297 ± 0.075 | 0.228 ± 0.036 | 0.363 ± 0.014 | 0.191 ± 0.0047 | 0.223 ± 0.031 | 0.313 ± 0.015 | 0.375 ± 0.076
MIQPRLANIIIS | 0.8517 ± 0.0056 | 0.864 ± 0.017 | 0.683 ± 0.018 | 0.833 ± 0.015 | 0.713 ± 0.024 | 0.6987 ± 0.0051 | 0.779 ± 0.017 | 0.753 ± 0.018
MLVLFCLCYILG | 0.2462 ± 0.0023 | 0.34 ± 0.013 | 0.231 ± 0.025 | 0.377 ± 0.0043 | 0.217 ± 0.013 | 0.235 ± 0.037 | 0.338 ± 0.03 | 0.341 ± 0.0068
MSHVCICRRLML | 0.68 ± 0.037 | 0.743 ± 0.016 | 0.609 ± 0.025 | 0.712 ± 0.032 | 0.404 ± 0.028 | 0.427 ± 0.0081 | 0.646 ± 0.048 | 0.498 ± 0.011
NFVVYHVAIRVP | 0.073 ± 0.0071 | 0.134 ± 0.0046 | 0.17 ± 0.017 | 0.2466 ± 0.0024 | 0.139 ± 0.0025 | 0.155 ± 0.019 | 0.198 ± 0.02 | 0.243 ± 0.037
PAPQAVRIFSLY | 0.62 ± 0.089 | 0.74 ± 0.026 | 0.653 ± 0.044 | 0.744 ± 0.026 | 0.179 ± 0.01 | 0.183 ± 0.022 | 0.39 ± 0.019 | 0.428 ± 0.046
PASYPPFIYLSI | 0.306 ± 0.012 | 0.288 ± 0.018 | 0.419 ± 0.032 | 0.496 ± 0.01 | 0.654 ± 0.018 | 0.418 ± 0.026 | 0.4461 ± 0.00056 | 0.434 ± 0.077
PCFACIAFVLFP | 0.451 ± 0.013 | 0.413 ± 0.093 | 0.356 ± 0.038 | 0.509 ± 0.032 | 0.334 ± 0.013 | 0.343 ± 0.014 | 0.4507 ± 0.0011 | 0.4827 ± 0.004
PLFLRPLSVPVL | 0.421 ± 0.0067 | 0.441 ± 0.01 | 0.333 ± 0.03 | 0.457 ± 0.0058 | 0.305 ± 0.0096 | 0.328 ± 0.024 | 0.4324 ± 0.0022 | 0.425 ± 0.0092
PLLPCRPILFLL | 0.559 ± 0.072 | 0.627 ± 0.027 | 0.558 ± 0.028 | 0.6615 ± 0.0026 | 0.125 ± 0.0042 | 0.117 ± 0.014 | 0.182 ± 0.038 | 0.197 ± 0.043
PLLPLPRFPLFA | 0.547 ± 0.018 | 0.558 ± 0.038 | 0.411 ± 0.03 | 0.595 ± 0.021 | 0.332 ± 0.009 | 0.367 ± 0.013 | 0.529 ± 0.019 | 0.41 ± 0.021
PLSDPLRVILIM | 0.55 ± 0.016 | 0.633 ± 0.06 | 0.501 ± 0.0089 | 0.627 ± 0.014 | 0.188 ± 0.0023 | 0.22 ± 0.023 | 0.328 ± 0.017 | 0.443 ± 0.063
PPPPTPRPLLPP | 0.662 ± 0.011 | 0.7253 ± 0.0031 | 0.677 ± 0.034 | 0.73 ± 0.021 | 0.666 ± 0.039 | 0.667 ± 0.011 | 0.697 ± 0.012 | 0.449 ± 0.029
PPPRLPLLSCSQ | 0.661 ± 0.025 | 0.679 ± 0.0094 | 0.669 ± 0.016 | 0.6752 ± 0.00072 | 0.632 ± 0.024 | 0.638 ± 0.034 | 0.66 ± 0.022 | 0.408 ± 0.013
PPPSRRLTLRLA | 0.612 ± 0.035 | 0.6993 ± 0.0065 | 0.681 ± 0.02 | 0.698 ± 0.009 | 0.179 ± 0.017 | 0.21 ± 0.02 | 0.397 ± 0.015 | 0.292 ± 0.041
PPWRPVALLLLA | 0.206 ± 0.029 | 0.259 ± 0.022 | 0.247 ± 0.022 | 0.384 ± 0.007 | 0.0824 ± 0.02 | 0.0841 ± 0.018 | 0.117 ± 0.077 | 0.156 ± 0.013
